Test results published in the supplement of paper PMC7125110.
± gives the standard error. For part of these data: Fewer inactive variants are shown than the library holds.

B1: glmS ribozyme (parent)
chain: AUAAAAGCGCCAGAACUACAGAAAUGUAGUUGACGAGGAGGAGGUUUAUCGAAUUUUCGGCGGAUGCCUCCAAA

Key:
Settings in all cases: with glucosamine-6-phosphate
glucosamine-6-phosphate [1] = variants of: B1; assay: kcat; higher = faster cleavage; RNA array
Method in brief: (§1)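 Glucosamine-6-phosphate in HEPES/KCl/Mg(OAc)2 buffer, at 40 μM to 10 mM, was flowed over barcoded ribozyme variants transcribed in situ by E. coli RNA polymerase on sequenced MiSeq chips. Tracking was through a hybridised Cy3 probe at 37 °C. kobs, kcat and KM came from exponential decay fits and weighted Michaelis–Menten fits of normalised per-tile medians.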

glucosamine-6-phosphate [2] = variants of: B1; assay: KM; higher = weaker cofactor use; RNA array
Method in brief: as §1

glucosamine-6-phosphate [3] = variants of: B1; assay: self-cleavage kobs at 40 uM GlcN6P; higher = faster cleavage; RNA array
Method in brief: as §1

glucosamine-6-phosphate [4] = variants of: B1; assay: self-cleavage kobs at 160 uM GlcN6P; higher = faster cleavage; RNA array
Method in brief: as §1

glucosamine-6-phosphate [5] = variants of: B1; assay: self-cleavage kobs at 640 uM GlcN6P; higher = faster cleavage; RNA array
Method in brief: as §1

glucosamine-6-phosphate [6] = variants of: B1; assay: self-cleavage kobs at 2500 uM GlcN6P; higher = faster cleavage; RNA array
Method in brief: as §1

glucosamine-6-phosphate [7] = variants of: B1; assay: self-cleavage kobs at 10000 uM GlcN6P; higher = faster cleavage; RNA array
Method in brief: as §1

Variant | kcat (glucosamine-6-phosphate [1]) [s⁻¹] | KM (glucosamine-6-phosphate [2]) [µM] | self-cleavage kobs at 40 uM GlcN6P (glucosamine-6-phosphate [3]) [s⁻¹] | self-cleavage kobs at 160 uM GlcN6P (glucosamine-6-phosphate [4]) [s⁻¹] | self-cleavage kobs at 640 uM GlcN6P (glucosamine-6-phosphate [5]) [s⁻¹] | self-cleavage kobs at 2500 uM GlcN6P (glucosamine-6-phosphate [6]) [s⁻¹] | self-cleavage kobs at 10000 uM GlcN6P (glucosamine-6-phosphate [7]) [s⁻¹]
AUAAAAGCGCCAGAACUACAGAAAUGUAGUUGAAGAGGAGGAGGUUUAUCGAAUUGUCGGCGGAUGCCUCCAAA [C34A U56G] | < 1e-05 | 31 ± 12 | < 1e-05 | < 1e-05 | < 1e-05 | < 1e-05 | 
AUAAAAGCGCCAGAACUACAGAAAUGUAGUUGACGAGGAGGAGGGUUAUCGAUUUUUCGGCGGAUGCCUCCAAA [U45G A53U] | 0.00477 ± 0.00059 | 2170 ± 340 | 9.6e-05 ± 1.4e-05 | 0.000306 ± 5.6e-05 | 0.000953 ± 0.00022 | 0.00274 ± 0.001 | 0.004 ± 0.0007
AUAAAAGCGCCAGAACUACAGAAAUGUAGUUGACGAGGAGGAGGUUUAUCAAAUUUUCGGCGGAUGCCGCCAAA [G51A U69G] | 5.93e-05 ± 1.1e-05 |  |  | 4.53e-05 ± 1.5e-05 | 6.08e-05 ± 1.6e-05 | 5.96e-05 ± 1.5e-05 | 
AUAAAAGCGCCGGAACUACAGAAAUGUAGUUGACGAGGAGGAGGUUUAUCGAAUUUUCGGCGGAUCCCUCCAAA [A12G G66C] | 8.51e-05 ± 6.1e-06 | 857 ± 290 |  |  | 4.42e-05 ± 1.9e-05 | 5.86e-05 ± 1.3e-05 | 8.08e-05 ± 1.3e-05
AUAAAAGCGCGAGAACUACAGAAAUGUAGUUGACGAGGUGGAGGUUUAUCGAAUUUUCGGCGGAUGCCUCCAAA [C11G A39U] | < 1e-05 |  |  | < 1e-05 |  | < 1e-05 | 
AUAAAAGCGCCUGAACUACAGAAAUGUAGUUGACGAGGAGAAGGUUUAUCGAAUUUUCGGCGGAUGCCUCCAAA [A12U G41A] | 0.00189 ± 0.00051 | 456 ± 210 | 0.000183 ± 2e-05 | 0.00038 ± 0.00011 | 0.00073 ± 0.00014 | 0.00213 ± 0.0004 | 0.00216 ± 0.00028
AUAAAAGCGCCAGAACUACAGAAAUGUAGUUGGCAAAGAGGAGGUUUAUCGAAUUUUCGGCGGAUGCCUCUAAA [A33G G35A G37A C71U] | 1.55e-05 ± 4.5e-06 |  |  |  |  |  | 
AUAAAAGCGCCAGAACUACAGAAAUGUAGUUGACGAGAAGGAGGUUUAUCGAAUUUUCGGCGGAUGCCUCAAAA [G38A C71A] | < 1e-05 |  |  |  |  |  | < 1e-05
AUAAAAGCGCCAUAAAUACAGAAAUGUAGUUGACGAGGAGGAGGUUUAUCGAAUUUUCGGCGGAUGCCUCCAAA [G13U C16A] | 0.000283 ± 1.2e-05 | 4340 ± 370 |  |  | 3.79e-05 ± 1.2e-05 | 0.0001 ± 2.2e-05 | 0.000198 ± 2.6e-05
AUAAAAGCGCCAGAACUACAGAAAUGUAGUUGACGAGGAGGAGGUUUAUCGAAUUUUCGGCGAAUGCCGCCAAA [G63A U69G] | 6.54e-05 ± 2.8e-05 |  |  | 8.37e-05 ± 2.7e-05 | 0.000116 ± 3.3e-05 | 5.94e-05 ± 2.5e-05 | 
AUAAAAGCGCCAGACCUACAGAAAUGUAGUUGACGAGGCGGAGGUUUAUCGAAUUUUCGGCGGAUGCCUCCAAA [A15C A39C] | 0.00146 ± 0.00042 | 3400 ± 1700 | 2.08e-05 ± 6.5e-06 | 0.000119 ± 1.5e-05 | 0.000171 ± 2.6e-05 | 0.000622 ± 9.2e-05 | 0.00112 ± 8.5e-05
AUAAAAGCGCCAGAACUACAGAAAUGUAGUUGACGAGGAGGAGCUUUAUCGAAGUUUCGGCGGAUGCCUCCAAA [G44C U54G] | 0.000124 ± 1.2e-05 | 1200 ± 330 |  |  | 4.75e-05 ± 1.2e-05 | 7.38e-05 ± 1.6e-05 | 0.000118 ± 1.9e-05
AUAAAACCGCCAGAACUACAGAAAUGUAGUUGACGAGCAGGAGGUUUAUCGAAUUUUCGGCGGAUGCCUCCAAA [G7C G38C] | < 1e-05 |  |  |  |  |  | < 1e-05
AUAAAAGCGCCAGAACUACAGAAAUGUAGUUGACGAGGGGGAGGUUUAUCGAAUUUUCGGCGGCUGCCUCCAAA [A39G A64C] | 0.000357 ± 5.4e-05 | 2860 ± 950 |  |  | 5.91e-05 ± 2.4e-05 | 0.000202 ± 5.3e-05 | 0.000267 ± 5.3e-05
AUAAAAGCGCCAGAACUACAGAAAUGUAGUUGACGAGGAGGAGGUUUAUCGAAUUUUCGGCGGAUGCCGACAAA [U69G C70A] | 4.72e-05 ± 1.5e-05 |  |  | 4.55e-05 ± 1.3e-05 | 5.13e-05 ± 9.1e-06 | 7.85e-05 ± 1.2e-05 | 
AUAAAAGCGCCAGAAAUACAGAAAUGUAGUUGACGAGGAGGAGGUUUAUCGAAUUUUCGGCGGAUGCCCCCAAA [C16A U69C] | 0.00012 ± 3.2e-05 |  |  |  | 9.93e-05 ± 2.2e-05 | 7.87e-05 ± 2.2e-05 | 0.000168 ± 4e-05
AUAAAAGCGCCAGAACUACAGAAAUGUAGUUGACGAGGUGCAGGUUUAUCGAAUUUUCGGCGGAUGCCUCCAAA [A39U G41C] | 2.16e-05 ± 4.5e-07 | 1200 ± 150 | < 1e-05 |  |  |  | 1.93e-05 ± 7.7e-06
